From the supplement of paper PMC5998384

Assays:
[1] = test system: HeLa Kyoto; experiment: melting temperature (median over replicates), in situ; higher = more thermally stable
[2] = test system: HeLa Kyoto; experiment: solubility change mitosis vs G1/S (difference of NP-40 vs SDS log2 ratios) (log2 ratio difference); higher = more soluble in mitosis
[3] = test system: HeLa Kyoto; experiment: solubility in G1/S (NP-40 vs SDS abundance) (log2 ratio); higher = more soluble; details: cell cycle stage: G1/S
[4] = test system: HeLa Kyoto; experiment: thermal stability score vs G1/S (z-score of summed log2 fold changes over temperatures); higher = more thermally stable than in G1/S
[5] = cell cycle stage: early G1 (4.5 h after nocodazole release)
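Wherever melting temperature (median over replicates), in situ is given: HeLa Kyoto cells synchronized by double thymidine or nocodazole block, proteins quantified by TMT10plex mass spectrometry, three independent biological replicates.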
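Wherever solubility change mitosis vs G1/S (difference of NP-40 vs SDS log2 ratios) is given: synchronized HeLa Kyoto cells (double thymidine block for G1/S, nocodazole release for mitosis), protein amounts in NP-40 versus SDS lysates quantified by mass spectrometry, three biological replicates.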
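Wherever solubility in G1/S (NP-40 vs SDS abundance) is given: HeLa Kyoto cells arrested at G1/S by double thymidine block, proteins quantified by TMT10plex mass spectrometry in mild NP-40 versus SDS extracts, three biological replicates.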
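Wherever thermal stability score vs G1/S (z-score of summed log2 fold changes over temperatures) is given: synchronized HeLa Kyoto cells, proteins quantified by TMT10plex mass spectrometry, three biological replicates, mitosis taken 0.5 h after nocodazole release, G1/S directly after double thymidine block.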

Sequence | melting temperature ([1]; cell cycle stage: G1/S) [°C] | melting temperature ([1]; cell cycle stage: mitosis) [°C] | solubility change mitosis (log2) [2] | solubility in G1/S (log2) [3] | thermal stability score [4, 5] | thermal stability score ([4]; cell cycle stage: mitosis)
MGALRPTLLPPSLPLLLLLMLGMGCWAREVLVPEGPLYRVAGTAVSISCNVTGYEGPAQQNFEWFLYRPEAPDTALGIVSTKDTQFSYAVFKSRVVAGEVQVQRLQGDAVVLKIARLQAQDAGIYECHTPSTDTRYLGSYSGKVELRVLPDVLQVSAAPPGPRGRQAPTSPPRMTVHEGQELALGCLARTSTQKHTHLAVSFGRSVPEAPVGRSTLQEVVGIRSDLAVEAGAPYAERLAAGELRLGKEGTDRYRMVVGGAQAGDAGTYHCTAAEWIQDPDGSWAQIAEKRAVLAHVDVQTLSSQLAVTVGPGERRIGPGEPLELLCNVSGALPPAGRHAAYSVGWEMAPAGAPGPGRLVAQLDTEGVGSLGPGYEGRHIAMEKVASRTYRLRLEAARPGDAGTYRCLAKAYVRGSGTRLREAASARSRPLPVHVREEGVVLEAVAWLAGGTVYRGETASLLCNISVRGGPPGLRLAASWWVERPEDGELSSVPAQLVGGVGQDGVAELGVRPGGGPVSVELVGPRSHRLRLHSLGPEDEGVYHCAPSAWVQHADYSWYQAGSARSGPVTVYPYMHALDTLFVPLLVGTGVALVTGATVLGTITCCFMKRLRKR [IGSF8] | 56.3 | 54.7 | -0.0392 | -0.0809 | -2.98 | -1.56
MTELQQDVEDTKPAKVLGKRESKLGSAHSEAENGVEEKKKACRSPTAQSPTPSVEADSPDQKKIISLWSKSSFDGASLASDKNDCKTESKNDPKTERKKSSSSSQYKANMHFHKLFLSVPTEEPLKQSFTCALQKEILYQGKLFVSENWICFHSKVFGKDTKISIPAFSVTLIKKTKTALLVPNALIIATVTDRYIFVSLLSRDSTYKLLKSVCGHLENTSVGNSPNPSSAENSFRADRPSSLPLDFNDEFSDLDGVVQQRRQDMEGYSSSGSQTPESENSRDFHATESQTVLNVSKGEAKPTRADAHVNRVPEGKAKSLPVQGLSETVGILHKVKSQKCPMLHHILIFYAIVVCALIISTFYMRYRINTLEEQLGLLTSIVDTHNTEQAAPSGLRSQVQFNVEVLCQELTANIVKLEKIQNNLQKLLENGD [GRAMD3] | 49.3 | 51 | -0.244 | 0.0879 | -0.258 | 1.75
MATAATIPSVATATAAALGEVEDEGLLASLFRDRFPEAQWRERPDVGRYLRELSGSGLERLRREPERLAEERAQLLQQTRDLAFANYKTFIRGAECTERIHRLFGDVEASLGRLLDRLPSFQQSCRNFVKEAEEISSNRRMNSLTLNRHTEILEILEIPQLMDTCVRNSYYEEALELAAYVRRLERKYSSIPVIQGIVNEVRQSMQLMLSQLIQQLRTNIQLPACLRVIGYLRRMDVFTEAELRVKFLQARDAWLRSILTAIPNDDPYFHITKTIEASRVHLFDIITQYRAIFSDEDPLLPPAMGEHTVNESAIFHGWVLQKVSQFLQVLETDLYRGIGGHLDSLLGQCMYFGLSFSRVGADFRGQLAPVFQRVAISTFQKAIQETVEKFQEEMNSYMLISAPAILGTSNMPAAVPATQPGTLQPPMVLLDFPPLACFLNNILVAFNDLRLCCPVALAQDVTGALEDALAKVTKIILAFHRAEEAAFSSGEQELFVQFCTVFLEDLVPYLNRCLQVLFPPAQIAQTLGIPPTQLSKYGNLGHVNIGAIQEPLAFILPKRETLFTLDDQALGPELTAPAPEPPAEEPRLEPAGPACPEGGRAETQAEPPSVGP [COG8] | 50.6 | 48.4 | -0.112 | -0.00808 | 0.73 | 1.67
MLVLFETSVGYAIFKVLNEKKLQEVDSLWKEFETPEKANKIVKLKHFEKFQDTAEALAAFTALMEGKINKQLKKVLKKIVKEAHEPLAVADAKLGGVIKEKLNLSCIHSPVVNELMRGIRSQMDGLIPGVEPREMAAMCLGLAHSLSRYRLKFSADKVDTMIVQAISLLDDLDKELNNYIMRCREWYGWHFPELGKIISDNLTYCKCLQKVGDRKNYASAKLSELLPEEVEAEVKAAAEISMGTEVSEEDICNILHLCTQVIEISEYRTQLYEYLQNRMMAIAPNVTVMVGELVGARLIAHAGSLLNLAKHAASTVQILGAEKALFRALKSRRDTPKYGLIYHASLVGQTSPKHKGKISRMLAAKTVLAIRYDAFGEDSSSAMGVENRAKLEARLRTLEDRGIRKISGTGKALAKTEKYEHKSEVKTYDPSGDSTLPTCSKKRKIEQVDKEDEITEKKAKKAKIKVKVEEEEEEKVAEEEETSVKKKKKRGKKKHIKEEPLSEEEPCTSTAIASPEKKKKKKKKRENED [NOP58] | 52.5 | 51.5 | 1.07 | -1.64 | -0.671 | -1.23
MSLKPRVVDFDETWNKLLTTIKAVVMLEYVERATWNDRFSDIYALCVAYPEPLGERLYTETKIFLENHVRHLHKRVLESEEQVLVMYHRYWEEYSKGADYMDCLYRYLNTQFIKKNKLTEADLQYGYGGVDMNEPLMEIGELALDMWRKLMVEPLQAILIRMLLREIKNDRGGEDPNQKVIHGVINSFVHVEQYKKKFPLKFYQEIFESPFLTETGEYYKQEASNLLQESNCSQYMEKVLGRLKDEEIRCRKYLHPSSYTKVIHECQQRMVADHLQFLHAECHNIIRQEKKNDMANMYVLLRAVSTGLPHMIQELQNHIHDEGLRATSNLTQENMPTLFVESVLEVHGKFVQLINTVLNGDQHFMSALDKALTSVVNYREPKSVCKAPELLAKYCDNLLKKSAKGMTENEVEDRLTSFITVFKYIDDKDVFQKFYARMLAKRLIHGLSMSMDSEEAMINKLKQACGYEFTSKLHRMYTDMSVSADLNNKFNNFIKNQDTVIDLGISFQIYVLQAGAWPLTQAPSSTFAIPQELEKSVQMFELFYSQHFSGRKLTWLHYLCTGEVKMNYLGKPYVAMVTTYQMAVLLAFNNSETVSYKELQDSTQMNEKELTKTIKSLLDVKMINHDSEKEDIDAESSFSLNMNFSSKRTKFKITTSMQKDTPQEMEQTRSAVDEDRKMYLQAAIVRIMKARKVLRHNALIQEVISQSRARFNPSISMIKKCIEVLIDKQYIERSQASADEYSYVA [CUL2] | 54.1 | 53.6 | -0.148 | -0.219 | -0.0958 | -0.6
MGSPEGRFHFAIDRGGTFTDVFAQCPGGHVRVLKLLSEDPANYADAPTEGIRRILEQEAGMLLPRDQPLDSSHIASIRMGTTVATNALLERKGERVALLVTRGFRDLLHIGTQARGDLFDLAVPMPEVLYEEVLEVDERVVLHRGEAGTGTPVKGRTGDLLEVQQPVDLGALRGKLEGLLSRGIRSLAVVLMHSYTWAQHEQQVGVLARELGFTHVSLSSEAMPMVRIVPRGHTACADAYLTPAIQRYVQGFCRGFQGQLKDVQVLFMRSDGGLAPMDTFSGSSAVLSGPAGGVVGYSATTYQQEGGQPVIGFDMGGTSTDVSRYAGEFEHVFEASTAGVTLQAPQLDINTVAAGGGSRLFFRSGLFVVGPESAGAHPGPACYRKGGPVTVTDANLVLGRLLPASFPCIFGPGENQPLSPEASRKALEAVATEVNSFLTNGPCPASPLSLEEVAMGFVRVANEAMCRPIRALTQARGHDPSAHVLACFGGAGGQHACAIARALGMDTVHIHRHSGLLSALGLALADVVHEAQEPCSLLYAPETFVQLDQRLSRLEEQCVDALQAQGFPRSQISTESFLHLRYQGTDCALMVSAHQHPATARSPRAGDFGAAFVERYMREFGFVIPERPVVVDDVRVRGTGRSGLRLEDAPKAQTGPPRVDKMTQCYFEGGYQETPVYLLAELGYGHKLHGPCLIIDSNSTILVEPGCQAEVTKTGDICISVGAEVPGTVGPQLDPIQLSIFSHRFMSIAEQMGRILQRTAISTNIKERLDFSCALFGPDGGLVSNAPHIPVHLGAMQETVQFQIQHLGADLHPGDVLLSNHPSAGGSHLPDLTVITPVFWPGQTRPVFYVASRGHHADIGGITPGSMPPHSTMLQQEGAVFLSFKLVQGGVFQEEAVTEALRAPGKVPNCSGTRNLHDNLSDLRAQVAANQKGIQLVGELIGQYGLDVVQAYMGHIQANAELAVRDMLRAFGTSRQARGLPLEVSSEDHMDDGSPIRLRVQISLSQGSAVFDFSGTGPEVFGNLNAPRAVTLSALIYCLRCLVGRDIPLNQGCLAPVRVVIPRGSILDPSPEAAVVGGNVLTSQRVVDVILGAFGACAASQGCMNNVTLGNAHMGYYETVAGGAGAGPSWHGRSGVHSHMTNTRITDPEILESRYPVILRRFELRRGSGGRGRFRGGDGVTRELLFREEALLSVLTERRAFRPYGLHGGEPGARGLNLLIRKNGRTVNLGGKTSVTVYPGDVFCLHTPGGGGYGDPEDPAPPPGSPPQALAFPEHGSVYEYRRAQEAV [OPLAH] | 51.1 | 51.3 | -0.171 | 0.0511 | -0.162 | -0.669
